B1: human PTH(1-84) (protein, UniProt P01270 32-115, looked up)
Parathyroid hormone: SVSEIQLMHNLGKHLNSMERVEWLRKKLQDVHNFVALGAPLAPRDAGSQRPRKKEDNVLVESHEKSLGEADKADVNVLTKAKSQ
modifications: Parathyroid hormone

Experiments:
platelet count [1] = assay: Effectiveness of PTH derivative, daily administration to mouse (peripheral platelet count); assay type: in vivo; conditions: C57B1/6N mice, 200 μg/kg subcutaneous once a day for six days, 24 h after final administration; FIG. 3
Procedure: Ten-week old male C57B1/6N mice as purchased from Japan Charles River Co., Ltd. were used in the experiment.
Drug solutions to be administered were prepared basically from human PTH(1-84) and human PTH(1-34) by the same procedure as in Example 1 to give a drug concentration of 20 μg/mL.
Eighteen mice were divided into three groups, which were administered subcutaneously with the two drug solutions and a control (citrate buffer) for six days on a once-a-day basis in a volume of 10 mL/kg. […] The administration was initiated at 10 a.m.
After 24 h of the final administration, a blood sample was withdrawn from each mouse through the orbital vein. Peripheral corpuscle counts were obtained with an automatic corpuscle counter F-800 (TOA MEDICAL ELECTRONICS CO., LTD)

platelet counts = assay: Test for single-dose administration to mouse (peripheral platelet count); assay type: in vivo; conditions: C57B1/6N mice, single dose 10 μg/kg through the tail vein, 6 and 9 h after the administration; FIG. 1
Procedure: Nine-week old male C57B1/6N mice as purchased from Japan Charles River Co. Ltd. were used in the experiment.
Human PTH(1-84) was dissolved in a citrate buffer (pH 5; containing 0.05% of Tween 80) at final concentrations of 1, 0.2 and 0.04 ˜g/mL so as to prepare the drug solutions to be administered.
Each of the thus prepared drug solutions and a control (citrate buffer) was administered to 15 mice through the tail vein in a volume of 10 mL/kg. […] The administration was initiated at 10 a.m.
After 3, 6 and 9 hours of the administration, five mice were picked up at random from each group of animals and blood samples were withdrawn through the orbital vein. At 10 a.m. on the same day, separate blood samples were taken from untreated mice (four in number) to obtain the preadministration value. Peripheral corpuscle counts were obtained with an automatic corpuscle counter F-800 (TOA MEDICAL ELECTRONICS CO., LTD.)

platelet count [2] = assay: Test for daily administration to mouse (peripheral platelet count); assay type: in vivo; conditions: C57B1/6N mice, subcutaneous once a day, FIG. 2
Procedure: Nine-week old male C57B1/6N mice as purchased from Japan Charles River Co., Ltd. were used in the experiment.
Drug solutions to be administered were prepared basically by the same procedure as in Example 1 to give drug concentrations of 5, 20 and 80 μg/mL.
The mice under test were divided into four groups, which were administered subcutaneously with the three drug solutions and a control (citrate buffer) once a day in a volume of 10 mL/kg. […] The administration was initiated at 10 a.m.
On days 5, 7 and 9 after the start of administration, five or six mice were picked up at random from each group of animals and blood samples were withdrawn through the orbital vein. The sampling of blood was timed to occur 24 h of the final administration. Separate blood samples were taken from untreated mice (five in number) to obtain the value for normal mouse. Peripheral corpuscle counts were obtained with an automatic corpuscle counter F-800(TOA MEDICAL ELECTRONICS CO., LTD.).

[3] = system: CFU-GM (precursor cells of granulocytes and macrophages); conditions: report by Meytes et al, J. Clin. Invest. Vol. 67, 1263-1269:1981; cited from earlier work
platelet count [4] = assay: Test for daily administration to rabbit (platelet count); assay type: in vivo; conditions: three rabbits, FIG. 4
Procedure: Six 12-15 week old male Japanese albino rabbits JW/CSK were used in the experiment. The animals were individually kept in aluminum rabbit bracket cages Rb-1 (350^w×500^d×350^h mm) in a vavarium in a specific pathogen-free environment under the following conditions: temperature, 24±2° C.; humidity, 50±10%; illumination, light turned on at 5:00 and turned off at 19:00; ventilation, 15 changes/hr. Each animal was supplied with 120 g of a radiation-sterilized feed for rabbits RM (purchased from Funahashi Farm) per day. The animals were also allowed to drink to tap water ad libitum from an automatic water feeder.
Human PTH(1-84) was administered in a volume of 2 mL/vial at a concentration of 200 μg/mL. A solvent was also supplied in a volume of 2 mL/vial. Both the drug and the control were stored at −135° C. until use.
PTH (200 μg/kg) was administered to the rabbits subcutaneously at the back of their neck for 13 consecutive days. The solvent was similarly administered in the same volume as the dose of a rh-PTH solution calculated from their body weight.
Blood samples (0.5 mL) were withdrawn from the rabbits through the lateral auricular vein before the administration and on days 2, 6, 9 and 13 during the administration period. […]

[5] = system: BFU-E (precursor cells of erythrocytes); conditions: report by Meytes et al, J. Clin. Invest. Vol. 67, 1263-1269:1981; cited from earlier work

Molecule	platelet increasing action compared with PTH(1-84) (platelet count [1])	platelet counts versus control (platelet counts)	platelet count versus control, day 5 (platelet count [2]; 200 and 800 μg/kg groups only, day 5, 24 h after final administration)	platelet count versus control, day 7 (platelet count [2]; all treated groups (50, 200 and 800 μg/kg), day 7)	in vitro colony formation by CFU-GM [3]	platelet count on day 13 (platelet count [4]; 200 μg/kg subcutaneous daily for 13 days, day 13)	platelet count relative to the initial value, increase from day 2 until day 6 (platelet count [4]; 200 μg/kg subcutaneous daily)	in vitro colony formation by BFU-E [5]
human PTH(1-34) (SVSEIQLMHNLGKHLNSMERVEWLRKKLQDVHNF; Parathyroid hormone; UniProt P01270 32-65, looked up, fragment) [PTH(134), partial peptide of PTH composed of 34 amino acids from the N terminus; purchased from Peptide Institute, Inc]	comparable platelet increasing action to PTH(1-84)							
B1		significant increase in platelet counts over the control	tendency to increase	significantly higher in platelet count than the control	interfered with	substantially returned to the initial level	two to four	interfered with
